Y(DOTA) = not defined here; Y(DTPA) = not defined here; AhOh = not defined here; Peg27 = L1, H-Peg27-OH
B1: monomer of formula (I) of example 1.g, H-L1-Y(C)-L2-P: P = Gln-Trp-Ala-Val-Gly-His-Leu-Nle-NH2, C = DOTA, L1 = H-Peg27-OH, L2 = H-AhOh-OH, in liposomes (peptide)
peptide: QWAVGHLX
modifications: not fully specified; Nle at position 8; C-terminal amide (NH2); N-terminal amino group amide-linked to spacer L2 (H-AhOh-OH)
notes: Chelating agent DOTA; Tested in 111In-labelled liposomes
B2: monomer of formula (I) of example 1.k, H-L1-Y(C)-L2-P: P = Gln-Trp-Ala-Val-Gly-His-Leu-Met-NH2, C = DOTA, L1 = H-Peg27-OH, L2 = H-AhOh-OH, in liposomes (peptide)
peptide: {Peg27-Y(DOTA)-AhOh}-QWAVGHLM-NH2
modifications: reading uncertain; also: in liposomes
notes: as for B1
B3: monomer of formula (I) of example 1.a, H-L1-Y(C)-L2-P: P = Gln-Trp-Ala-Val-Gly-His-Leu-Nle-NH2, C = DTPA, L1 = H-Peg27-OH, L2 = H-AhOh-OH, in liposomes (peptide)
peptide: QWAVGHLX
modifications: not fully specified; Nle at position 8; C-terminal amide (NH2); N-terminal amino group amide-linked to spacer L2 (H-AhOh-OH) of the lipid/DTPA monomer
notes: also called monomer 1a

Molecular target: T1, GRP receptor overexpressed on PC-3 cells (UniProt P30550 1-384)
T1 construct: whole, on cells; also called GRP receptors
Assay: 111In-labelled liposomes on PC-3 cells overexpressing the GRP receptor; cell-bound radioactivity by gamma counting
Protocol: On the day of the experiment, the cell medium is removed, the cells are washed two times with fresh medium (DMEM with 1% of foetal bovine serum, pH 7.4) and incubated for at least one hour at 37° C. The cells were incubated (in triplicate) with 100 μL of liposomes labelled with indium 111/natural indium at various times (30 mins, 1 hour, 2 hours, 4 hours). The final volume is 1 mL and the final liposomal concentration is 2*10⁻⁴M. At the end of the incubation, the cell medium, containing the unbound radioactivity, is separated from the cells.
The radioactivity bound to the cells was recovered by tryptic digestion after two rapid washes with […] PBS followed by 1 hour of incubation and measured by gamma counting. The difference in binding of the liposomes containing H-L₁-Y(C)-L₂-P with the bombesin peptide, compared to when the peptide is absent, is clearly visible in FIG. 2. Experiments were conducted with various type (1) monomers in the liposomal formulation, varying the peptide sequences and the chelating agent, such as those described in examples 1a-1o. No substantial differences are found in the target selective binding properties. For example, in FIG. 2 the result for the liposomes containing monomer 1a is reported.

T1 sequence (P30550 whole entry): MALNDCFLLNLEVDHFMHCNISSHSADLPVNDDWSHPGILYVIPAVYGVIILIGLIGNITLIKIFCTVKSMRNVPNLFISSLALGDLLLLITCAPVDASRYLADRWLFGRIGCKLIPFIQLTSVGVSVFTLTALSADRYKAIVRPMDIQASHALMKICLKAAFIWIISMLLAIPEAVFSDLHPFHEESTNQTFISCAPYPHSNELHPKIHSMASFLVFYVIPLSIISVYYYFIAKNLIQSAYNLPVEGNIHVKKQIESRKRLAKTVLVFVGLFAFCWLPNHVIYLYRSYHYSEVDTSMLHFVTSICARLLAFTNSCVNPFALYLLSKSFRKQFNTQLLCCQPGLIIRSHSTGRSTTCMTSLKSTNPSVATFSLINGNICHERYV

Row | Binder | binding result
1 | {Peg27-Y(DTPA)-AhOh}-QWAVGHLM-NH2 (reading uncertain; also: in liposomes, Tested in 111In-labelled liposomes) | binds
2 | B1 | binds
3 | B2 | binds
4 | B3 | binds

— US20140234211A1 (INVECTORS S R L, published 2014)
